The target of experiment [1] is mouse TIM3 (mouse) (UniProt Q8VIM0). Kind of experiment: binding to activated mouse T cells; method not stated.
For experiment [2] the target is unchanged. Kind of experiment: binding to activated mouse T cells, compared with TIM3.18 on human TIM-3.

Chain of mouse TIM3 (mouse) (Q8VIM0 20-281): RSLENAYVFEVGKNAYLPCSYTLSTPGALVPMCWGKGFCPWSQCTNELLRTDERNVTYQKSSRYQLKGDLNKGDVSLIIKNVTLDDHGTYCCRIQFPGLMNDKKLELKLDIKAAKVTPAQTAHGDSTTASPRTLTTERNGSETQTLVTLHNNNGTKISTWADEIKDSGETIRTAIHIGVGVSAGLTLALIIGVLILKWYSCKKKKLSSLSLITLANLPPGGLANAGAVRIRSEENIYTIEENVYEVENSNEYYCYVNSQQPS

Take “RMT3-23, rat anti-mouse TIM-3 commercial antibody (Bio-X-Cell)”: the EC50 (usually the concentration at which the effect is half-maximal) in experiment [1] stood at 1.7 nM. Also, the fold weaker EC50 than TIM3.18 on human TIM-3 in experiment [2] is 17 fold.
